Results published in US20120324602A1.

What was measured:
Assay in all cases: TAP-MS, N-terminal GS tag
[1] = target: importin alpha-2 (IMPA2) (Arabidopsis thaliana)
[2] = target: T1, actin-related protein 7 (ARP7) (Arabidopsis thaliana)
T1 sequence (Q8L4Y5 1-363, looked up): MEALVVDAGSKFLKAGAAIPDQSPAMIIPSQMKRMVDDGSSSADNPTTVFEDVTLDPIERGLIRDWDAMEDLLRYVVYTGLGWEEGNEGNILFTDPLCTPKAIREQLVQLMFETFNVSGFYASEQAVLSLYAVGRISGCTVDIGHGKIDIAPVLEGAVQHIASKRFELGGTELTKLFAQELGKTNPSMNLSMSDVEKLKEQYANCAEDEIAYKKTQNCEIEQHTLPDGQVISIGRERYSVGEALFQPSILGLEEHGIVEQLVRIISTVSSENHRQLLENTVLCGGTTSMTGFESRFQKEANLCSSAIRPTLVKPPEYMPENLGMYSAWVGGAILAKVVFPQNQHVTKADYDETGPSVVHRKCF

[3] = target: SNF2 protein (BRM) (Arabidopsis thaliana)
[4] = target: T2, GAD (Glutamate decarboxylase); calmodulin binding (Arabidopsis thaliana)
T2 sequence (Q42521 1-502, looked up): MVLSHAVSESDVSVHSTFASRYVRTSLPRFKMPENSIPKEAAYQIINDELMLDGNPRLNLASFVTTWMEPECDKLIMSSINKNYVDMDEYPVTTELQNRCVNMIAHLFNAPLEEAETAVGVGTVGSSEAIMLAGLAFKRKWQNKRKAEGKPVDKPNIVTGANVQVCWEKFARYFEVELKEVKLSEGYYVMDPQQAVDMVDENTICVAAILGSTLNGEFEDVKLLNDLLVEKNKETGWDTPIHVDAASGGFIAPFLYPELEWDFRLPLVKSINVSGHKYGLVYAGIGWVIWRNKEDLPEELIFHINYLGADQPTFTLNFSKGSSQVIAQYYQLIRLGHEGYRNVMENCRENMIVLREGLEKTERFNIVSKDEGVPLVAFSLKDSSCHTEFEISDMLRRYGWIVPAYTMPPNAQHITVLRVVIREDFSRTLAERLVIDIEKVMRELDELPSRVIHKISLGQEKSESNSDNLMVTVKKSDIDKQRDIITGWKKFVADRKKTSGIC

[5] = target: chromatin remodeling protein (SYD) (Arabidopsis thaliana)
[6] = target: acyl-(acyl-carrier-protein) desaturase (AT1G43800) (Arabidopsis thaliana)
[7] = target: expressed protein, similar to DAG protein (AT3G15000) (Arabidopsis thaliana)
[8] = target: PTAC17 (PLASTID …ONALLY ACTIVE17) (Arabidopsis thaliana)
[9] = target: G2484-1, agenet domain-containing protein (Arabidopsis thaliana)
[10] = target: T3, ATASE (Gln Phosphoribosyl Pyrophospate Amidotransferase 1) (Arabidopsis thaliana)
T3 sequence (Q9SI61 59-566, looked up): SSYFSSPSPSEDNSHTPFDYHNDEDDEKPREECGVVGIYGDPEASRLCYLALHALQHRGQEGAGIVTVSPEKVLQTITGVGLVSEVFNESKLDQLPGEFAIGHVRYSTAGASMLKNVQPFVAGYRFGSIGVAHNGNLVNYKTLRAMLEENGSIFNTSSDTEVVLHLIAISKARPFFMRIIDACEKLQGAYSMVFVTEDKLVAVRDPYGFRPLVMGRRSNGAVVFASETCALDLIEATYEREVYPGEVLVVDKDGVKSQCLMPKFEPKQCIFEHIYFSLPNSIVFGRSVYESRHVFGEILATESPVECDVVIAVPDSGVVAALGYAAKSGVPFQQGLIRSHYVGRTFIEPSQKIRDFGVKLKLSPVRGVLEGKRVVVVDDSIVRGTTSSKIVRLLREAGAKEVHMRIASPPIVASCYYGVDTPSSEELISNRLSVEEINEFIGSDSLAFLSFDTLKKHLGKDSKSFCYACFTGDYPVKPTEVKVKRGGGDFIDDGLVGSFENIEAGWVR

N-GS (times co-purified) [1]: 1
N-GS (times co-purified) [2]: 3
N-GS (times co-purified) [3]: 2
N-GS (times co-purified) [4]: 1
N-GS (times co-purified) [5]: 4
N-GS (times co-purified) [6]: 1
N-GS (times co-purified) [7]: 3
N-GS (times co-purified) [8]: 1
N-GS (times co-purified) [9]: 2
N-GS (times co-purified) [10]: 2
B1: GS-AN3 (protein, UniProt Q8L8A5 1-210, looked up)
GRF1-interacting factor 1: MQQHLMQMQPMMAGYYPSNVTSDHIQQYLDENKSLILKIVESQNSGKLSECAENQARLQRNLMYLAAIADSQPQPPSVHSQYGSAGGGMIQGEGGSHYLQQQQATQQQQMTQQSLMAARSSMLYAQQQQQQQPYATLQHQQLHHSQLGMSSSSGGGGSSGLHILQGEAGGFHDFGRGKPEMGSGGGGEGRGGSSGDGGETLYLKSSDDGN
modifications: N-terminal GS tag
